From patent US20250002610A1 (Genmab, published 2025)

T1: human DR4 (Death Receptor 4), cell surface expressed on human tumor cell lines (human, UniProt O00220 24-468)
T1 construct: also called TNFRSF10A; TRAIL-R1
T1 sequence: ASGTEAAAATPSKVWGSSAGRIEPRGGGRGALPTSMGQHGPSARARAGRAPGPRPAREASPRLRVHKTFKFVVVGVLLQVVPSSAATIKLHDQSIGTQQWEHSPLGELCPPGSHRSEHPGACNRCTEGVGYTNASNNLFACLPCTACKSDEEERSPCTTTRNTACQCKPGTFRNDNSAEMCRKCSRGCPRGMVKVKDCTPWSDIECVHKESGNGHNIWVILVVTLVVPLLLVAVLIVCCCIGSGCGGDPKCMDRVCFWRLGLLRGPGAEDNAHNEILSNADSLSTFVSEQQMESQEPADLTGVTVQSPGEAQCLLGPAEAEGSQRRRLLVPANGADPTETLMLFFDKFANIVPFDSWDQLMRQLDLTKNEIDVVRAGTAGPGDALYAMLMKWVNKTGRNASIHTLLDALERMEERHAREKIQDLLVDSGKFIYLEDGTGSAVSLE


Columns and labels:
[1] = molecular target: T1, human DR4 (Death Receptor 4), cell …; assay: flow cytometry, MDA-MB-231 cells, N = 1
[2] = molecular target: T1, human DR4 (Death Receptor 4), cell …; assay: flow cytometry, MDA-MB-231 cells, N = 2
[3] = molecular target: T1, human DR4 (Death Receptor 4), cell …; assay: flow cytometry, MDA-MB-231 cells, average ± SEM
[4] = molecular target: T1, human DR4 (Death Receptor 4), cell …; assay: flow cytometry on OPM-2 cells (endogenous DR4), gMFI PE
Procedure: Immunol. […] Human lung fibroblasts and CAFs (50,000 cells/well) were seeded in 96-Well round bottom plates (Greiner Bio-one, Cat #650101). Antibody dilutions were prepared using fluorescence-activated cell sorting (FACS) buffer, consisting of phosphate buffer saline (PBS, Lonza, Cat #BE17-517Q)+1% Bovine Serum Albumin (BSA, Roche, Cat #10735086001)+0.02% Sodium Azide (Bio-World, Cat #41920044-3). Plates were centrifuged, supernatant was removed, cells were resuspended in 50 μL of human Fc Block (BD, Cat #564220, diluted 1:100 in FACS buffer) and 50 μL of viability stain TO-PRO-3 Iodide (Thermo Fisher, Cat #T3605, diluted 1: 25,000 in FACS buffer), and incubated for 15 min at 4° C. Plates were washed three times with FACS buffer. […] Antibody binding to viable cells (TO-PRO-3 negative) was analyzed by flow cytometry on a FACSCelesta™ (BD biosciences) and data were processed using FlowJo_v10.8.1 (FlowJo LLC). Geomean fluorescence intensity, gMFI, was determined and visualized using GraphPad Prism. Binding curves were analyzed using nonlinear regression analysis. […]
Binding of DR4-specific antibodies BisG1-b12-FEAL/DR4-T1014A04-FEAR, BisG1-b12-FEAL/DR4-chCTB007-FEAR, IgG1-DR4-chCTB007-FEAR and IgG1-DR4-T1014A04-FEAR to cell surface expressed human DR4 was analyzed by flow cytometry using the human cancer cell line OPM-2 (DSMZ, Cat #ACC 50), which endogenously expresses DR4.

[5] = molecular target: T1, human DR4 (Death Receptor 4), cell …; assay: flow cytometry, MDA-MB-231 cells, N = 1; MDA-MB-231 cells, up to 90 µg/mL, N = 1
[6] = molecular target: T1, human DR4 (Death Receptor 4), cell …; assay: flow cytometry, MDA-MB-231 cells, N = 2; MDA-MB-231 cells, up to 90 µg/mL, N = 2
[7] = molecular target: T1, human DR4 (Death Receptor 4), cell …; assay: flow cytometry, MDA-MB-231 cells, average ± SEM; MDA-MB-231 cells, up to 90 µg/mL, average of N = 2

Binder | EC50 [1] | Max MFI (at 90 µg/mL) [1] | EC50 [2] | Max MFI (at 90 µg/mL) [2] | EC50 [3] | Max MFI (at 90 µg/mL) [3] | EC50 (read off the curve) [4] | EC50 [5] | EC50 [6] | EC50 [7]
IgG1-DR4-chCTB007-FEAR (antibody, V domains shown, Prior art DR4 clone (US20090136503A1)) VH: EVQLQQSGAELVKPGASVKLSCTASGFNIKDTYMHWVKQRPEQGLEWIGRIDPANGNTKYDPKFQGKATITADTSSNTAYLQLSSLTSEDTAVYYCAYYYVSNAWFTYWGQGTLVTVSA VL: DIQMTQSPASLSVSVGETVTITCRASENIYSNLEWYQQKQGKSPQLLVYAATNLADGVPSRFSGSGSGTQYSLKINSLQSEDFGSYYCQHFWGTWTFGGGTKLEIKR | 0.04 µg/mL | 3750 MFI | 0.08 µg/mL | 3480 MFI | 0.06 µg/mL | 3620 MFI | ~0.05 µg/mL |  |  | 
BisG1-b12-FEAL/DR4-T1014A04-FEAR (bispecific antibody, human IgG1, kappa, lambda, Fab-arm exchange of IgG1-b12-FEAL and IgG1-DR4-T1014A04-FEAR) heavy 1: QVQLVQSGAEVKKPGASVKVSCQASGYRFSNFVIHWVRQAPGQRFEWMGWINPYNGNKEFSAKFQDRVTFTADTSANTAYMELRSLRSADTAVYYCARVGPYSWDDSPQDNYYMDVWGKGTTVIVSSASTKGPSVFPLAPSSKSTSGGTAALGCLVKDYFPEPVTVSWNSGALTSGVHTFPAVLQSSGLYSLSSVVTVPSSSLGTQTYICNVNHKPSNTKVDKRVEPKSCDKTHTCPPCPAPEFEGGPSVFLFPPKPKDTLMISRTPEVTCVVVAVSHEDPEVKFNWYVDGVEVHNAKTKPREEQYNSTYRVVSVLTVLHQDWLNGKEYKCKVSNKALPAPIEKTISKAKGQPREPQVYTLPPSREEMTKNQVSLTCLVKGFYPSDIAVEWESNGQPENNYKTTPPVLDSDGSFLLYSKLTVDKSRWQQGNVFSCSVMHEALHNHYTQKSLSLSPG light 1: EIVLTQSPGTLSLSPGERATFSCRSSHSIRSRRVAWYQHKPGQAPRLVIHGVSNRASGISDRFSGSGSGTDFTLTITRVEPEDFALYYCQVYGASSYTFGQGTKLERKRTVAAPSVFIFPPSDEQLKSGTASVVCLLNNFYPREAKVQWKVDNALQSGNSQESVTEQDSKDSTYSLSSTLTLSKADYEKHKVYACEVTHQGLSSPVTKSFNRGEC heavy 2: EVQLVQSGADVKRPGASVKVSCKISGDSFNAYFIHWVRQAPGQGLEWMGWFNPDSGTADSAQKFHGRVTMTRDTSSSTAFLELSRLRSDDTAVYYCVRQHRGNTFAPWGRGTMVTVSSASTKGPSVFPLAPSSKSTSGGTAALGCLVKDYFPEPVTVSWNSGALTSGVHTFPAVLQSSGLYSLSSVVTVPSSSLGTQTYICNVNHKPSNTKVDKRVEPKSCDKTHTCPPCPAPEFEGGPSVFLFPPKPKDTLMISRTPEVTCVVVAVSHEDPEVKFNWYVDGVEVHNAKTKPREEQYNSTYRVVSVLTVLHQDWLNGKEYKCKVSNKALPAPIEKTISKAKGQPREPQVYTLPPSREEMTKNQVSLTCLVKGFYPSDIAVEWESNGQPENNYKTTPPVLDSDGSFFLYSRLTVDKSRWQQGNVFSCSVMHEALHNHYTQKSLSLSPG light 2: QSVLTQPPSASGSPGQSVTISCTGTTSDVGGYNYVSWYQQHPGKAPKLMIYGVNQRPSGVPDRFSGSKSGNTASLTVSGLQAEDEADYYCSSYAGSNNWVFGGGTKLTVLGQPKAAPSVTLFPPSSEELQANKATLVCLISDFYPGAVTVAWKADSSPVKAGVETTTPSKQSNNKYAASSYLSLTPEQWKSHRSYSCQVTHEGSTVEKTVAPTECS |  |  |  |  |  |  |  | 4.33 µg/mL | 6.36 µg/mL | 5.35 µg/mL
